Measured values: PMC11437124 (Nature Communications, 2024)
Read-outs that look alike come from different tables or passages of the source.

T1: TREM2 peptide 149-161, wild type (Homo sapiens, UniProt Q9NZC2)
T1 chain: SFEDAHVEHSISR


Legend:
[1] = target: T2, human TREM2 extracellular domain (ECD) (Homo sapiens, UniProt Q9NZC2)
[2] = target: T3, human TREM2 on live cells (Homo sapiens, UniProt Q9NZC2)
[3] = target: T3, human TREM2 on live cells; test: flow cytometry on cells
[4] = target: T1, TREM2 peptide 149-161, wild type; test: BLI
[5] = target: T2, human TREM2 extracellular domain (ECD); test: SPR
Target sequence in this assay (Q9NZC2 19-174): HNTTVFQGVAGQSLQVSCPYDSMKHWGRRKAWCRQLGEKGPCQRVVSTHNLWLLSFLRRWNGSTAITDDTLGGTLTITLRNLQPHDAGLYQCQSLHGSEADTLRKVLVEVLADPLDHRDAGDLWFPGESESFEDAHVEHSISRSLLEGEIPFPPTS

Binder	binding result [1]	binding result [5]	further results
3.10A7 (antibody, V domains shown) VH: AVQLVESGGGLVQPKESLKISCAASGITFSNAAMFWVRQAPGKGLEWVARIRTKPNNYATNYADSVKGRFTISRDDSKSMVYLQMDNLKTEDTAMYYCTAGTTVVPFDYWGQGVMVTVSS VL: DIVMTQSPSSLAVSAGETVTIDCKSSQSLLYSGNQKTYLAWYQQKPGQSPKLLIYWASTRQSGVPDRFIGSGSGTDFTLTISSVQAEDLAIYYCQQYYDTPLTFGSGTKLEIK	binds		binding result [2]: binds
R19-11-40 (antibody, V domains shown) VH: AVQLVESGGGLVQPKESLKISCAASGFTFSNAAMFWVRQAPGEGLEWVARIRTKPNSYATYYADSVKGRFTISRDDSKSMVYLQMDNLKTEDTAMYYCTADYPGMGFDSWGQGVMVTVSS VL: DIVMTQSPSSLAVSAGETVTIDCKSSQSLLYSGNQKTYLAWYQQKPGQSPKLLIYWASTRQSGVPDRFIGSGSGTDFTLTISSVQAEDLAIYYCQQYYDTPLTFGSGTKLEIK	binds		
R19-11-38 (antibody, V domains shown) VH: AVQLVESGGGLVQPKESLKISCAASGFTFSNAAMYWVRQAPGKGLEWVARIRTKPNNYATYYADSVKGRFTISRDDSKSMVYLQMDNLKTEDTAMYYCTAAFYGYYFDYWGQGVMVTVSS VL: DIVMTQSPSSLAVSAGETVTIDCKSSQSLLYSGNQKTYLAWYQQKPGQSPKLLIYWASTRQSGVPDRFIGSGSGTDFTLTISSVQAEDLAIYYCQQYYDTPLTFGSGTKLEIK	binds		
R19-11-37 (antibody, V domains shown) VH: AVQLVESGGGLVQPKESLKISCAASGFTFSNAAMYWVRQAPGKGLEWVARIRTKPNNYATYYADSVKGRFTISRDDSKSMVYLQMDNLKTEDTAMYYCIASRYGYDFDYWGQGVMVTVSS VL: DIVMTQSPSSLAVSAGETVTIDCKSSQSLLYSGNQKTYLAWYQQKPGQSPKLLIYWASTRQSGVPDRFIGSGSGTDFTLTISSVQAEDLAIYYCQQYYDTPLTFGSGTKLEIK	binds		
3.21B10 (antibody, V domains shown) VH: AVQLIESGGGLVQPKGSLKISCAASGFTFSDAAMFWVRQAPGKGLEWIARIRTKPNNYATYYADSVRGRFTISRDDSKSMVYLQMDNLKTDDTAMYYCIEGVNYGGSPFVYWGQGTLVTVSS VL: DIVMTQSPSSLAVSAGETVTINCKSSQSLLYSGNQKSYLAWYQQKPGQSPKLLIYWASTRQSGVPDRFIGSVSGTDFTLTISSVQAEDLAIYYCQQYYDIPLTFGSGTKVEIK	binds		binding result [2]: binds
R19-11-41 (antibody, V domains shown) VH: AVQLVESGGGLVQPKESLKISCAASGFTFSNAAMYWVRQAPGKGLEWVARIRTKPNNYATYYADSVKGRFTISRDDSKSMVYLQMDNLKTEDTAMYYCTAEGITTWFDYWGQGVMVTVSS VL: DIVMTQSPSSLAVSAGETVTIDCKSSQSLLYSGNQKTYLAWYQQKPGQSPKLLIYWASTRQSGVPDRFIGSGSGTDFTLTISSVQAEDLAIYYCQQYYDTPLTFGSGTKLEIK	binds		
R19-11-42 (antibody, V domains shown) VH: AVQLVESGGGLVHPQESLKISCLASGLSFSSAAMYWVRQVPGKGLEWLARIRTKPNNYATFYADSVKGRFTISRDDSKSMVFLQMDDLNTEDTAIYYCTASVFTVAFEYWGQGVMVTVSS VL: DIVMTQSPSSLAVSAGETVTIDCKSSQSLLYSGNQKTYLAWYQQKPGQSPKLLIYWASTRQSGVPDRFIGSGSGTDFTLTISSVQAEDLAIYYCQQYYDTPLTFGSGTKLEIK	binds		
antibody 3.41B10 (antibody, V domains shown) VH: AVQLVESGGGLVQPKESLKISCEASGFTFTNAAMNWVRQAPGKGLEWVARIRTKPNNYRTYYADSVRGRFTISRDDSKSMVHLQMDNLKTEDTAMYYCTGEGPQGGFVYWGQGTLVTVSS VL: DIVMTQSPSSLTVSAGGTVTINCKSSQSLLYSGDRKNYLAWYQQKPGQSPKLLIYWSSTRQSGVPDRFIGSGSGTDFTLTISSVQAEDLAIYYCQQYYDSPLTFGSGTKLDIK			binding result [3]: binds
antibody 3.18E5 (antibody, V domains shown) VH: EVQLVETGGSLVQPGKSLKLTCATSGFPFSNVWMHWVRQSPEKQLEWIAHIKAKSDNYATYYAESVKGRFTISRDDSKTTIYLQMNSLKEADTAIYYCTGLDYWGQGVMVTVSS VL: DTVLTQAPLSVSVTPGESASISCRSNKSLLGIRDITSLYWYLQKPGKSPQLLIYRMSNLASGVPDRFSGSGSETDFTLKISEVETEDVGVYYCAQFLRYPYTFGPGTKLELK			binding result [3]: binds
Fab fragment of antibody Para.09 (Fab, V domains shown) VH: EVQLVETGGSLVQPGKSLRLTCATSGFPFSNVWLHWVRQSPEKHPEWVAHIKAKSDNYATYYAESVKGRFTISRDDSKSSVFLQMNSLKEEDTAIYYCTDILEYWGQGTLVTVSS VL: DTVLTQAPLSLSVTPGESASISCRSSKSLLGVRDITSLYWYLQKPGKSPQLLIYRMSNLASGVPDRFSGSGSETDFTLKISEVETEDVGVYYCAQFLRYPYTFGPGTKLELK			binding result [4]: binds
antibody 3.50G1 (antibody, V domains shown) VH: EVQLVETGGSLVQPGKSLKLTCATSGFPFSNVWMHWVRQSPEKQLEWIAHIKAKSDNYATYYAESVKGRFTISRDDSKTSIYLQMNSLKDDDTAIYYCTGLDYWGQGVMVTVSS VL: DTVLTQAPLSVSVTPGESASISCRSNKSLLGIRDITSLYWFLQKPGKSPQLLIYRMSNLASGVPDRFSGSGSETDFTLKISEVETEDVGVYYCAQFLRYPYTFGPGTKLELQ			binding result [3]: binds
Fab fragment of antibody 3.10C2 (Fab, V domains shown) VH: EVQLVETGGSLVQPGKSLKLTCATSGFPFSNVWMHWVRQSPEKQLEWIAHIKAKSDNYATYYAESVKGRFTISRDDSKTSIYLQMNSLKEDDTAIYYCTGLDYWGQGVMVTVSS VL: DTVLTQAPLSLSVTPGESASISCRSSKSLLGVRDITSLYWYLQKPGKSPQLLIYRMSNLASGVPDRFSGSGSETDFTLKISEVETEDVGVYYCAQFLRYPYTFGPGTKLELK			binding result [4]: binds
antibody 3.22B9 (antibody, V domains shown) VH: AVQVVESGGGLVQPKGSLKISCAVSGFTFSDAAMHWVRQAPGKGLEWVARIRTKPNSYATYYADSVKGRFIISRDDSKNMVYLQMDNLKIEDTAMYYCTAGTTTAPFDYWGQGVMVTVSS VL: DIVMIQSPSSVAVSAGETVTINCKSSQSLLYSGDHKNYLAWFQQKPGQSPKLLIYWASTRLSDVPDRVIGSGSGTDFTLTISSVQAEDLATYYCQQYYDTPLTFGSGTKVEIK			binding result [3]: binds
antibody 3.27H7 (antibody, V domains shown) VH: EVQLVETGGSLVQPGGSLKLTCATSGFPFSNVWLHWIRRSPEKQLEWVAQIKARSDNYATYYAESVKGRFIVSRDDSKTTIYLQMNNLKEEDTAIYYCTGLDYWGQGVMVTVSS VL: DVVLTQAPLSVSVTPGESASISCRSSRSLLTSKGITSLYWYLQKPGMSPHLLIYRMSNLASGIPDRFSGSGSETDFTLKISEVEPEDVGVYYCAQFLVYPYTFGAGTKLELK			binding result [3]: binds

Continued, in another order:

binding result [1]	binding result [5]	Binder	further results
	binds	hu3.10C2 G106hD (antibody, V domains shown) VH: EVQLVESGGGLVQPGGSLKLSCATSGFPFSNVWMHWVRQASGKGLEWIAHIKAKSDNYATYYAESVKGRFTISRDDSKTTIYLQMNSLKTEDTAVYYCTDLDYWGQGTTVTVSS VL: DVVMTQSPLSLPVTPGEPASISCRSSRSLLTSKGITSLYWYLQKPGQSPQLLIYRMSNLASGIPDRFSGSGSGTDFTLKISRVEAEDVGVYYCAQFLVYPYTFGPGTKVEIK	
	binds	hu3.10C2 G106hD/I107h insertion/D116hE (antibody, V domains shown) VH: EVQLVESGGGLVQPGGSLKLSCATSGFPFSNVWMHWVRQASGKGLEWIAHIKAKSDNYATYYAESVKGRFTISRDDSKTTIYLQMNSLKTEDTAVYYCTDILEYWGQGTTVTVSS VL: DVVMTQSPLSLPVTPGEPASISCRSSRSLLTSKGITSLYWYLQKPGQSPQLLIYRMSNLASGIPDRFSGSGSGTDFTLKISRVEAEDVGVYYCAQFLVYPYTFGPGTKVEIK	
	binds	hu3.10C2 I107h insertion/D116hE (antibody, V domains shown) VH: EVQLVESGGGLVQPGGSLKLSCATSGFPFSNVWMHWVRQASGKGLEWIAHIKAKSDNYATYYAESVKGRFTISRDDSKTTIYLQMNSLKTEDTAVYYCTGILEYWGQGTTVTVSS VL: DVVMTQSPLSLPVTPGEPASISCRSSRSLLTSKGITSLYWYLQKPGQSPQLLIYRMSNLASGIPDRFSGSGSGTDFTLKISRVEAEDVGVYYCAQFLVYPYTFGPGTKVEIK	
	binds	hu3.10C2 G106hD/D116hE (antibody, V domains shown) VH: EVQLVESGGGLVQPGGSLKLSCATSGFPFSNVWMHWVRQASGKGLEWIAHIKAKSDNYATYYAESVKGRFTISRDDSKTTIYLQMNSLKTEDTAVYYCTDLEYWGQGTTVTVSS VL: DVVMTQSPLSLPVTPGEPASISCRSSRSLLTSKGITSLYWYLQKPGQSPQLLIYRMSNLASGIPDRFSGSGSGTDFTLKISRVEAEDVGVYYCAQFLVYPYTFGPGTKVEIK	
	binds	hu3.10C2 D116hE (antibody, V domains shown) VH: EVQLVESGGGLVQPGGSLKLSCATSGFPFSNVWMHWVRQASGKGLEWIAHIKAKSDNYATYYAESVKGRFTISRDDSKTTIYLQMNSLKTEDTAVYYCTGLEYWGQGTTVTVSS VL: DVVMTQSPLSLPVTPGEPASISCRSSRSLLTSKGITSLYWYLQKPGQSPQLLIYRMSNLASGIPDRFSGSGSGTDFTLKISRVEAEDVGVYYCAQFLVYPYTFGPGTKVEIK	
	binds	hu3.10C2 I107h insertion (antibody, V domains shown) VH: EVQLVESGGGLVQPGGSLKLSCATSGFPFSNVWMHWVRQASGKGLEWIAHIKAKSDNYATYYAESVKGRFTISRDDSKTTIYLQMNSLKTEDTAVYYCTGILDYWGQGTTVTVSS VL: DVVMTQSPLSLPVTPGEPASISCRSSRSLLTSKGITSLYWYLQKPGQSPQLLIYRMSNLASGIPDRFSGSGSGTDFTLKISRVEAEDVGVYYCAQFLVYPYTFGPGTKVEIK	
